Assays:
[1] = molecular target: unmethylated mononucleosome (H3K9me0), 147 bp 601 DNA 5'-fluorescein-labeled; assay: FP
[2] = molecular target: H3K9me1 monomethylated mononucleosome (methyl-lysine analog), 147 bp 601 DNA 5'-fluorescein-labeled (monomethyl-lysine analog (MLA) at K9); assay: FP
[3] = molecular target: H3K9me2 dimethylated mononucleosome (methyl-lysine analog), 147 bp 601 DNA 5'-fluorescein-labeled (dimethyl-lysine analog (MLA) at K9); assay: FP
H3K9me0 peptide [4] = molecular target: T1, H3K9me0 peptide (Homo sapiens, unmethylated K9; fluorescein label; H3(1-20) in mature numbering (initiator Met removed)); assay: FP; lower limit, no saturation
H3K9me0 peptide [5] = molecular target: T1, H3K9me0 peptide; assay: FP; MBP-tagged full-length G9a; lower limit, no saturation

Row | Kd [2] [µM] | Kd [3] [µM] | Binder | other results
1 |  |  | G9aS-GLP (protein) chain 1: AHDAPGRADTSQPSARMRGHGEPRRPPCDPLADTIDSSGPSLTLPNGGCLSAVGLPPGPGREALEKALVIQESERRKKLRFHPRQLYLSVKQGELQKVILMLLDNLDPNFQSDQQSKRTPLHAAAQKGSVEICHVLLQAGANINAVDKQQRTPLMEAVVNNHLEVARYMVQLGGCVYSKEEDGSTCLHHAAKIGNLEMVSLLLSTGQVDVNAQDSGGWTPIIWAAEHKHIDVIRMLLTRGADVTLTDNEENICLHWASFTGSAAIAEVLLNAQCDLHAVNYHGDTPLHIAARESYHDCVLLFLSRGANPELRNKEGDTAWDLTPERSDVWFALQLNRKLRLGVGNRAVRTEKIICRDVARGYENVPIPCVNGVDGEPCPEDYKYISENCETSTMNIDRNITHLQHCTCVDDCSSSNCLCGQLSIRCWYDKDGRLLQEFNKIEPPLIFECNQACSCWRSCKNRVVQSGIKVRLQLYRTAKMGWGVRALQTIPQGTFICEVVGELISDAEADVREDDSYLFDLDNKDGEVYCIDARYYGNISRFINHLCDPNIIPVRVFMLHQDLRFPRIAFFSSRDIRTGEELGFDFGDRFWDIKSKYFTCQCGSEKCKHSAEAIALEQSRLARLDPHPELLPDLSSLPPINT chain 2: PGQEKSLAAEGRADTTTGSIAGAPEDERSQSTAPQAPECFDPAGPAGLVRPTSGLSQGPGKETLESALIALDSEKPKKLRFHPKQLYFSARQGELQKVLLMLVDGIDPNFKMEHQSKRSPLHAAAEAGHVDICHMLVQAGANIDTCSEDQRTPLMEAAENNHLDAVKYLIKAGAQVDPKDAEGSTCLHLAAKKGHYDVVQYLLSNGQMDVNCQDDGGWTPMIWATEYKHVELVKLLLSKGSDINIRDNEENICLHWAAFSGCVDIAEILLAAKCDLHAVNIHGDSPLHIAARENRYDCVVLFLSRDSDVTLKNKEGETPLQCASLSSQVWSALQMSKALRDSAPDKPVAVEKTVSRDIARGYERIPIPCVNAVDSELCPTNYKYVSQNCVTSPMNIDRNITHLQYCVCVDDCSSSTCMCGQLSMRCWYDKDGRLLPEFNMAEPPLIFECNHACSCWRNCRNRVVQNGLRARLQLYRTQDMGWGVRSLQDIPLGTFVCEYVGELISDSEADVREEDSYLFDLDNKDGEVYCIDARFYGNVSRFINHHCEPNLVPVRVFMSHQDLRFPRIAFFSTRLIQAGEQLGFDYGERFWDVKGKLFSCRCGSSKCRHSSAALAQRQASAAQEPQENGLPDTSSAAAADPL | Kd [1]: > 70 µM
2 | 5 |  | GLP ANK-SET homodimer (complex) QEKSLAAEGRADTTTGSIAGAPEDERSQSTAPQAPECFDPAGPAGLVRPTSGLSQGPGKETLESALIALDSEKPKKLRFHPKQLYFSARQGELQKVLLMLVDGIDPNFKMEHQSKRSPLHAAAEAGHVDICHMLVQAGANIDTCSEDQRTPLMEAAENNHLDAVKYLIKAGAQVDPKDAEGSTCLHLAAKKGHYDVVQYLLSNGQMDVNCQDDGGWTPMIWATEYKHVELVKLLLSKGSDINIRDNEENICLHWAAFSGCVDIAEILLAAKCDLHAVNIHGDSPLHIAARENRYDCVVLFLSRDSDVTLKNKEGETPLQCASLSSQVWSALQMSKALRDSAPDKPVAVEKTVSRDIARGYERIPIPCVNAVDSELCPTNYKYVSQNCVTSPMNIDRNITHLQYCVCVDDCSSSTCMCGQLSMRCWYDKDGRLLPEFNMAEPPLIFECNHACSCWRNCRNRVVQNGLRARLQLYRTQDMGWGVRSLQDIPLGTFVCEYVGELISDSEADVREEDSYLFDLDNKDGEVYCIDARFYGNVSRFINHHCEPNLVPVRVFMSHQDLRFPRIAFFSTRLIQAGEQLGFDYGERFWDVKGKLFSCRCGSSKCRHSSAALAQRQASAAQEPQENGLPDTSSAAAADPL | 
3 | 14.8 | 18.4 | G9a ANK-SET homodimer (complex) DAPGRADTSQPSARMRGHGEPRRPPCDPLADTIDSSGPSLTLPNGGCLSAVGLPPGPGREALEKALVIQESERRKKLRFHPRQLYLSVKQGELQKVILMLLDNLDPNFQSDQQSKRTPLHAAAQKGSVEICHVLLQAGANINAVDKQQRTPLMEAVVNNHLEVARYMVQLGGCVYSKEEDGSTCLHHAAKIGNLEMVSLLLSTGQVDVNAQDSGGWTPIIWAAEHKHIDVIRMLLTRGADVTLTDNEENICLHWASFTGSAAIAEVLLNAQCDLHAVNYHGDTPLHIAARESYHDCVLLFLSRGANPELRNKEGDTAWDLTPERSDVWFALQLNRKLRLGVGNRAVRTEKIICRDVARGYENVPIPCVNGVDGEPCPEDYKYISENCETSTMNIDRNITHLQHCTCVDDCSSSNCLCGQLSIRCWYDKDGRLLQEFNKIEPPLIFECNQACSCWRSCKNRVVQSGIKVRLQLYRTAKMGWGVRALQTIPQGTFICEYVGELISDAEADVREDDSYLFDLDNKDGEVYCIDARYYGNISRFINHLCDPNIIPVRVFMLHQDLRFPRIAFFSSRDIRTGEELGFDYGDRFWDIKSKYFTCQCGSEKCKHSAEAIALEQSRLARLDPHPELLPDLSSLPPINT | Kd (H3K9me0 peptide [4]): > 100 µM
4 | 2.26 | 4.76 | G9a-GLP ANK-SET heterodimer (complex) chain 1: DAPGRADTSQPSARMRGHGEPRRPPCDPLADTIDSSGPSLTLPNGGCLSAVGLPPGPGREALEKALVIQESERRKKLRFHPRQLYLSVKQGELQKVILMLLDNLDPNFQSDQQSKRTPLHAAAQKGSVEICHVLLQAGANINAVDKQQRTPLMEAVVNNHLEVARYMVQLGGCVYSKEEDGSTCLHHAAKIGNLEMVSLLLSTGQVDVNAQDSGGWTPIIWAAEHKHIDVIRMLLTRGADVTLTDNEENICLHWASFTGSAAIAEVLLNAQCDLHAVNYHGDTPLHIAARESYHDCVLLFLSRGANPELRNKEGDTAWDLTPERSDVWFALQLNRKLRLGVGNRAVRTEKIICRDVARGYENVPIPCVNGVDGEPCPEDYKYISENCETSTMNIDRNITHLQHCTCVDDCSSSNCLCGQLSIRCWYDKDGRLLQEFNKIEPPLIFECNQACSCWRSCKNRVVQSGIKVRLQLYRTAKMGWGVRALQTIPQGTFICEYVGELISDAEADVREDDSYLFDLDNKDGEVYCIDARYYGNISRFINHLCDPNIIPVRVFMLHQDLRFPRIAFFSSRDIRTGEELGFDYGDRFWDIKSKYFTCQCGSEKCKHSAEAIALEQSRLARLDPHPELLPDLSSLPPINT chain 2: QEKSLAAEGRADTTTGSIAGAPEDERSQSTAPQAPECFDPAGPAGLVRPTSGLSQGPGKETLESALIALDSEKPKKLRFHPKQLYFSARQGELQKVLLMLVDGIDPNFKMEHQSKRSPLHAAAEAGHVDICHMLVQAGANIDTCSEDQRTPLMEAAENNHLDAVKYLIKAGAQVDPKDAEGSTCLHLAAKKGHYDVVQYLLSNGQMDVNCQDDGGWTPMIWATEYKHVELVKLLLSKGSDINIRDNEENICLHWAAFSGCVDIAEILLAAKCDLHAVNIHGDSPLHIAARENRYDCVVLFLSRDSDVTLKNKEGETPLQCASLSSQVWSALQMSKALRDSAPDKPVAVEKTVSRDIARGYERIPIPCVNAVDSELCPTNYKYVSQNCVTSPMNIDRNITHLQYCVCVDDCSSSTCMCGQLSMRCWYDKDGRLLPEFNMAEPPLIFECNHACSCWRNCRNRVVQNGLRARLQLYRTQDMGWGVRSLQDIPLGTFVCEYVGELISDSEADVREEDSYLFDLDNKDGEVYCIDARFYGNVSRFINHHCEPNLVPVRVFMSHQDLRFPRIAFFSTRLIQAGEQLGFDYGERFWDVKGKLFSCRCGSSKCRHSSAALAQRQASAAQEPQENGLPDTSSAAAADPL | 
5 |  |  | full-length G9a (enzyme) MRGLPRGRGLMRARGRGRAAPTGGRGRGRGGAHRGRGRPRSLLSLPRAQASWAPQLPAGLTGPPVPCLPSQGEAPAEMGALLLEKEPRGAAERVHSSLGDTPQSEETLPKANPDSLEPAGPSSPASVTVTVGDEGADTPVGAASLIGDEPESLEGDGGRIVLGHATKSFPSSPSKGGACPSRAKMSMTGAGKSPPSVQSLAMRLLSMPGAQGAATAGPEPSPATTAAQEGQPKVHRARKTMSKPSNGQPPIPEKRPPEVQHFRMSDDMHLGKVTSDVAKRRKLNSGSLSEDLGSAGGSGDIILEKGEPRPLEEWETVVGDDFSLYYDAYSVDERVDSDSKSEVEALAEQLSEEEEEEEEEEEEEEEEEEEEEEEEEDEESGNQSDRSGSSGRRKAKKKWRKDSPWVKPSRKRRKREPPRAKEPRGVNGVGSSGPSEYMEVPLGSLELPSEGTLSPNHAGVSNDTSSLETERGFEELPLCSCRMEAPKIDRISERAGHKCMATESVDGELLGCNAAILKRETMRPSSRVALMVLCEAHRARMVKHHCCPGCGYFCTAGTFLECHPDFRVAHRFHKACVSQLNGMVFCPHCGEDASEAQEVTIPRGDGGTPPIGTAAPALPPLAHDAPGRADTSQPSARMRGHGEPRRPPCDPLADTIDSSGPSLTLPNGGCLSAVGLPPGPGREALEKALVIQESERRKKLRFHPRQLYLSVKQGELQKVILMLLDNLDPNFQSDQQSKRTPLHAAAQKGSVEICHVLLQAGANINAVDKQQRTPLMEAVVNNHLEVARYMVQLGGCVYSKEEDGSTCLHHAAKIGNLEMVSLLLSTGQVDVNAQDSGGWTPIIWAAEHKHIDVIRMLLTRGADVTLTDNEENICLHWASFTGSAAIAEVLLNAQCDLHAVNYHGDTPLHIAARESYHDCVLLFLSRGANPELRNKEGDTAWDLTPERSDVWFALQLNRKLRLGVGNRAVRTEKIICRDVARGYENVPIPCVNGVDGEPCPEDYKYISENCETSTMNIDRNITHLQHCTCVDDCSSSNCLCGQLSIRCWYDKDGRLLQEFNKIEPPLIFECNQACSCWRSCKNRVVQSGIKVRLQLYRTAKMGWGVRALQTIPQGTFICEYVGELISDAEADVREDDSYLFDLDNKDGEVYCIDARYYGNISRFINHLCDPNIIPVRVFMLHQDLRFPRIAFFSSRDIRTGEELGFDYGDRFWDIKSKYFTCQCGSEKCKHSAEAIALEQSRLARLDPHPELLPDLSSLPPINT | Kd (H3K9me0 peptide [5]): > 66 µM

Source: publication PMC8564726 (2021)
